Blank lines part the entries; values can stand above or below the binder they belong to.
What was measured:
[1] = target: T1, soluble FLAG-tagged recombinant hLIGHT (native, untreated) (human, UniProt O43557 66-240); experiment: dot blot: serial dilutions of native soluble hLIGHT on PVDF, probed with 5 µg/ml antibody, chemiluminescence
T1 construct: N-terminal FLAG tag followed by hLIGHT extracellular region Gly66 to Val240; also called soluble hLIGHT; FLAG-hLIGHT
T1 chain: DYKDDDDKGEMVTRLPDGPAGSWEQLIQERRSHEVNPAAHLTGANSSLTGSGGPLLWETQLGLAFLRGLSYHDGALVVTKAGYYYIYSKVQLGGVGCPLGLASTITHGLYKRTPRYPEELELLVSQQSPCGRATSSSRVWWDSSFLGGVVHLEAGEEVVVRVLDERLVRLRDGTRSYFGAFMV
Description: Each blot was probed with 5 μg/ml of each primary antibody. […] The blots were washed 3× in 1×TBST followed by super SA-HRP (Amersham Biosciences, Piscataway, N.J.). Chemiluminescence was used for detection using the ECL detection kit (Amersham Biosciences, Piscataway, N.J.) and signal was visualized by exposure to X-OMAT AR imaging film (Kodak, Rochester, N.Y.). […] An anti-M2 (irrelevant antigen) antibody was used as a negative control.
Five micrograms of soluble human LIGHT was either boiled in 2×SDS sample buffer (denatured) or untreated (native), and then both were serially diluted in 6× increments. 5 μl of each hLIGHT dilution was spotted simultaneously onto hydrated 0.2 μm PVDF membranes (Invitrogen, Carlsbad, Calif.) using an 8 multi-channel pipette. […] Each blot was probed with 5 μg/ml of each primary antibody (see below). […] The blots were washed 3×in 1×TBST followed by super SA-HRP (Amersham Biosciences, Piscataway, N.J.). Chemiluminescence was used for detection using the ECL detection kit (Amersham Biosciences, Piscataway, N.J.) and signal was visualized by exposure to X-OMAT AR imaging film (Kodak, Rochester, N.Y.)

[2] = target: T2, hLIGHT SNP variant 214K-32S, cell surface-expressed on EL4 cells (human, UniProt O43557 1-240); experiment: flow cytometry dose titration on EL4 cells expressing 214K-32S
Description: (§1) For FIG. 25A-25D, the geometric mean fluorescence intensity (MFI) was determined and non-linear regression analysis applied.

[3] = target: T3, human LIGHT (hLIGHT), cell surface-expressed, full length (human, UniProt O43557 1-240); experiment: flow cytometry on HEK 293-hLIGHT cells
T3 construct: also called native hLIGHT on the cell surface; EL4-hLIGHT

[4] = target: T4, hLIGHT SNP variant 214E-32L, cell surface-expressed on EL4 cells (human, UniProt O43557 1-240); experiment: flow cytometry dose titration on EL4 cells expressing the SNP variant
T4 construct: also called cytoplasmic SNP
T4 chain: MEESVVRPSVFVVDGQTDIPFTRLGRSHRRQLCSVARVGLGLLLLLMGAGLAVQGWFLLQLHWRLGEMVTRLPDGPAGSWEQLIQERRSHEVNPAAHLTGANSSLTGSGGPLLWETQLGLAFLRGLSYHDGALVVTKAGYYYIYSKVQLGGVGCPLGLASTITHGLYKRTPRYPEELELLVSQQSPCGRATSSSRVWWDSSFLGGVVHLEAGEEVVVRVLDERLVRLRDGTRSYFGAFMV
Description: as §1

[5] = target: T5, hLIGHT SNP variant 214E-32S, cell surface-expressed on EL4 cells (human, UniProt O43557 1-240); experiment: as above
Description: as §1

[6] = target: T5, hLIGHT SNP variant 214E-32S, cell …; experiment: flow cytometry at 10 µg/ml antibody on EL4 SNP cell lines
Excerpt: (§2) Binding was detected with goat anti-human IgG-APC secondary antibody. Isotype control human IgG was used as a negative control.

[7] = target: T2, hLIGHT SNP variant 214K-32S, cell …; experiment: flow cytometry at one antibody concentration on EL4 SNP 214K cell line
Excerpt: as §2

[8] = target: T3, human LIGHT (hLIGHT), cell …; experiment: flow cytometry on hLIGHT-transfected cells

lowest limit of detection [1]: 23 ng
B1: E1 antibody (produced by hybridoma 124 E1, ATCC Accession No. PTA-7729) (antibody, V domains shown)
VH: EVQLVESGGGLVQPGGSLRLSCAASGFTFSRFNMNWVRQAPGKGLEWVSYISSSSYTIYYADSVKGRFTISRDNAKNSLDLQMNSLRDEDTAVYYCARSIAAAFDYWGQGALVTVSS
VL: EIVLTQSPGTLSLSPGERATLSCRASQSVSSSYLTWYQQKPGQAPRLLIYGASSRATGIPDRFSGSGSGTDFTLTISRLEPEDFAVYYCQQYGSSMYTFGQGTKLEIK
notes: Fully human IgG1 purified from hybridoma culture

binding result [2]: no binding
binding result [3]: binds
binding result [4]: binds
binding result [5]: binds
B2: recombinant single kappa chain antibody of E1 heavy chain paired with Elkappa(B) (antibody, V domains shown)
VH: EVQLVESGGGLVQPGGSLRLSCAASGFTFSRFNMNWVRQAPGKGLEWVSYISSSSYTIYYADSVKGRFTISRDNAKNSLDLQMNSLRDEDTAVYYCARSIAAAFDYWGQGALVTVSS
VL: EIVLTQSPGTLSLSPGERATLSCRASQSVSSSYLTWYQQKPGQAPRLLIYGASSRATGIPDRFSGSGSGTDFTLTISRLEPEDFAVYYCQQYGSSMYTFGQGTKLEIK
notes: also called E1kappa(B); 124Elkappa(B)

binding result [6]: binds
binding result [7]: no binding (tested: 10 µg/ml)
lowest limit of detection [1]: 3.9 ng
binding result [8]: binds
B3: E63 antibody (produced by hybridoma 124 E63, ATCC Accession No. PTA-7818) (antibody, V domains shown)
VH: QVQLQESGPGLVKPSETLSLTCIVSGGSVSSGGYYWSWIRQPPGKGLEWIGYIYYSGSTNYNPSLKSRVTISVDTSKNQFSLKLSSVTAADTAVYYCARWITMFRGVGFDPWGQGTLVTVSS
VL: EIVLTQSPDFQSVTPKEKVTITCRASQSIGSSLHWYQQKPDQSPKLLIKYASQSFSGVPSRFSGSGSGTDFTLTINSLEAEDAAAYYCHQSSSLPLTFGGGTKVEIK
notes: a recombinant IgG1 version (E63G1) was also made

lowest limit of detection [1]: 23 ng
B4: F23 antibody (produced by hybridoma 124 F23, ATCC Accession No. PTA-7728) (antibody, V domains shown)
VH: QVQLQQWGAGLLKPSETLSLTCAVYGGSFSGYYWNWIRQPPGKGLEWIGEINQYNPSLKSRVTISVDTSKNQFSLKLSSVTAADTAVYYCAREIATADKGYYGLDVWGQGTTVTVSS
VL: AIQLTQSPSSLSASVGDRVTITCRASQGISSALAWYQQKPGKAPKLLIYDASSLESGVPSRFSGSGSGTDFTLTISSLQPEDFATYYCQQFNSYPLTFGGGTKVEIK
notes: Residue ranges without leader are those stated in claim 28 (CLM-00028)
